From patent US20120178908A1 (Novo Nordisk, published 2012)
Where a chain is given by its changes, count along the chain named. Numbers in names are those of the source.

T1: TLT1 (human TLT-1, reagent of the SPR studies, source NN) (human, UniProt Q86YW5 16-162, limits assumed)
T1 sequence: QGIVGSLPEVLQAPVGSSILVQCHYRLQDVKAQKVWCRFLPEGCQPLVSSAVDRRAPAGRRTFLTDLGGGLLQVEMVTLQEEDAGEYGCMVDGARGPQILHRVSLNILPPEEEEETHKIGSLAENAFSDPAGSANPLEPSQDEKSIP

T2: hTLT-1 ECD-HPC4 R110A (human, UniProt Q86YW5 16-162)
T2 construct: As m27; also called Ala mutant 30
T2 chain: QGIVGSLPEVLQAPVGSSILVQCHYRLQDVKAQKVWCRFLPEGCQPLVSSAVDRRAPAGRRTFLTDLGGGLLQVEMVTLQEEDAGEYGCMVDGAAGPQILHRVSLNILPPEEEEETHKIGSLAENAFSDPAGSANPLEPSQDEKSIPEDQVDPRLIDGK

T3: hTLT-1 ECD-HPC4 F54A (human, UniProt Q86YW5 16-162)
T3 construct: As m27; also called Ala mutant 12
T3 chain: T2 chain with F39A, A95R

T4: hTLT-1 ECD-HPC4 M91A (human, UniProt Q86YW5 16-162)
T4 construct: As m27; also called Ala mutant 24
T4 chain: T2 chain with M76A, A95R

T5: hTLT-1 ECD-HPC4 R41A (human, UniProt Q86YW5 16-162)
T5 construct: As m27; also called Ala mutant 7
T5 chain: T2 chain with R26A, A95R

T6: hTLT-1 ECD-HPC4 L42A (human, UniProt Q86YW5 16-162)
T6 construct: As m27; also called Ala mutant 8
T6 chain: T2 chain with L27A, A95R

T7: hTLT-1 ECD-HPC4 Q43A (human, UniProt Q86YW5 16-162)
T7 construct: As m27; also called Ala mutant 9
T7 chain: T2 chain with Q28A, A95R

T8: hTLT-1 ECD-HPC4 H116A (human, UniProt Q86YW5 16-162)
T8 construct: As m27; also called Ala mutant 31
T8 chain: T2 chain with A95R, H101A

T9: hTLT-1 ECD-HPC4 K46A (human, UniProt Q86YW5 16-162)
T9 construct: As m27; also called Ala mutant 10
T9 chain: T2 chain with K31A, A95R

T10: hTLT-1.126-162 (TLT-1 stalk peptide) (human)
T10 construct: Made by solid phase peptide synthesis; not glycosylated; also called chain P of the crystal structure
T10 peptide: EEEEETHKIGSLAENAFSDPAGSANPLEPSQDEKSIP

B1: mAb 0062 HC2; LC2 (antibody, V domains shown)
VH: QVQLQQSGAEPMKPGASVKISCKATGYTFSSHWIEWIKQRPGHGLEWIGEILPGSGNTNYNEKFKGKATFTADTSSNTAYMQLSSLTSEDSAVYYCARGYYGLNYDWYFDVWGAGTTVTVSS
VL: DIQMTQTTSSLSASLGDRVTISCRASQDISNYLNWYQQKPDGTVKLLIFYTSRLHSGVPSRFSGSGSGTDYSLTISNLEPEDIATYYCQQDTKLPYTFGGGTKLEMKR
notes: also called 0197-0000-0062; 0052HC.C91Y + 0052LC
B2: mAb 0023 HC2; LC2 (antibody, V domains shown)
VH: EVRLVESGGGLVQPGGSLKLSCATSGFTFSDYFMYWIRQTPEKRLEWVAYISNGGDSSSYPDTVKGRFTISRDNAKNTLYLQMSRLKSEDTAMYYCATNKNWDDYYDMDYWGQGTSVTVSS
VL: DIVVSQSPSSLAVSAGEKVTMSCKSSQSLLNSRTRKNYLAWYQQKPGQSPKLLIYWASTRESGVPDRFTGSGSGTDFTLTISSVQAEDLAVYYCKQSYNLLTFGAGTKLELKR
notes: also called 0197-0000-0023
B3: Fab0100 (anti-TLT-1 Fab) (Fab, V domains shown)
VH: EVKLLESGGGLVQPGGSLKLSCAASGFDFSRYWMTWVRQAPGKGLEWIGEINPDSSTINYNPSLKDKFIISRDNAKNTLYLQMSEVRSEDTALYYCASGVFTSWGQGTLVTVSA
VL: DVVMTQTPLSLPVSLGDQASISCRSSQSLVHRNGNTYFHWALQKPGQSPKLLIYKVSNRFSGVPDRFSGSGSGTDFTLKISRVEAEDLGVYFCSQSTHVPYTFGGGTKLEIKR
notes: also called Fab 0061 (Fab 0012-LC.C36A; VH.T60N-CH1)

What was measured:
[1] = target: T1, TLT1 (human TLT-1, reagent of the SPR …); assay: SPR (Biacore), mAb immobilised directly on CM5, TLT1 as analyte
Procedure: The mAbs of interest were either immobilized directly to a CM5 chip or by capture via a human Fc capture mAb immobilized to a CM5 chip.
Direct capture: The TLT-1 mAbs were immobilised to a level of approx 500-1000 RU on a CM5 chip (50 μg/ml diluted in Na-acetate, pH 4.0) using the standard procedure recommended by the supplier. Two-fold dilutions of TLT1 from 200 nM to 0.2 nM were tested for binding to the mABs. Running and dilution buffer: 10 mM HEPES, 150 mM, 0.005% p20, pH 7.4. Regeneration was obtained by 10 mM Glycine, pH 1.7.

hTLT-1 ECD-HPC4 R110A = target: T2, hTLT-1 ECD-HPC4 R110A; assay: SPR (ProteOn), mAb captured by anti-hFc, 100 nM mutant, signal 10 s after injection normalised to captured mAb
Procedure: (§1) Each anti-body was diluted in 10 mM sodium acetate pH 5.0 to a concentration of […], and was immobilized to an individual flow cell at 30 μl/min for 240s. The antibodies were immobilized to flow cells A1-A6 (horizontal direction). After immobilization, the active sites on the flow cell were blocked with 1 M ethanolamine. The final immobilization level of capture antibody typically ranged from approximately 9,000 to 10,000 RU in one experiment. Capture of the anti-TLT1 antibodies 0197-0000-0023, 0197-0000-0051, 0197-0000-0061 and 0197-0000-0062 was conducted by diluting to […] into HBS-EP buffer (10 mM HEPES, 150 mM NaCl, 3 mM EDTA, 0.05% surfactant P20, pH 7.4) and injected at 30 μl/min for 60s in vertical direction, creating interspot reference points with only anti-human Fc antibodies. The final capture level of test antibodies typically ranged from approximately 200 to 300 RU in one experiment. Binding of wt or Ala mutant hTLT-1 ECD-HPC4 protein was conducted by injecting over parallel flow cells in horizontal direction to allow for comparative analyses of binding to different captured anti-TLT1 antibodies relative to binding to the interspot references. Each hTLT-1 ECD-HPC4 protein was diluted to 100 nM, based on the calculated average Mw, into HBS-EP buffer and injected at 30 μl/min for 240s. The GLM chip was regenerated after each injection cycle of analyte via one 18 s injection of 1 M Formic acid followed by a 18s injection of 50 mM NaOH at 100 μl/min. This regeneration step removed the anti-TLT1 antibody and any bound TLT1 from the immobilized capture antibody surface, and allowed for the subsequent binding of the next test sample pair.
(§2) Data analysis was performed using the ProteOn Manager™ Software. No significant non-specific binding to the interspot control surfaces was observed. Binding curves were processed by double referencing (subtraction of interspot control surface signals as well as blank buffer injections over captured anti-TLT1 antibodies). This allowed correction for instrument noise, bulk shift and drift during sample injections. Binding signal at 10 s after stop of analyte injection was normalized to level of captured anti-TLT1 antibody and presented as binding relative to wt hTLT-1 ECD-HPC4 protein.

hTLT-1 ECD-HPC4 F54A = target: T3, hTLT-1 ECD-HPC4 F54A; assay: as above
Procedure: as §1, §2

hTLT-1 ECD-HPC4 M91A = target: T4, hTLT-1 ECD-HPC4 M91A; assay: as above
Procedure: as §1, §2

hTLT-1 ECD-HPC4 R41A = target: T5, hTLT-1 ECD-HPC4 R41A; assay: as above
Procedure: as §1, §2

hTLT-1 ECD-HPC4 L42A = target: T6, hTLT-1 ECD-HPC4 L42A; assay: as above
Procedure: as §1, §2

hTLT-1 ECD-HPC4 Q43A = target: T7, hTLT-1 ECD-HPC4 Q43A; assay: as above
Procedure: as §1, §2

hTLT-1 ECD-HPC4 H116A = target: T8, hTLT-1 ECD-HPC4 H116A; assay: as above
Procedure: as §1, §2

hTLT-1 ECD-HPC4 K46A = target: T9, hTLT-1 ECD-HPC4 K46A; assay: as above
Procedure: as §1, §2

[2] = target: T10, hTLT-1.126-162 (TLT-1 stalk peptide); assay: crystal structure of the Fab0100:hTLT-1.126-162 complex
From the text: Crystallogr. 40, 658-674) of the CCP4 suite (Bailey,S. (1994) Acta Crystallogr. Sect. D-Biol. Crystallogr. 50, 760-763). […] Additional crystallographic refinements, using the REFMAC5 software program (Murshudov, G. N. et al. Acta Crystallogr. Sect. D-Biol. Crystallogr. 53, 240-255), followed by computer graphics inspection of the electron density maps, model corrections and building, using the COOT software program (Emsley, P. et al. Acta Crystallogr. Sect. D-Biol. Crystallogr. 60, 2126-2132), were applied. The procedure was cycled until no further significant improvements could be made to the model.
The crystal was allowed to soak for about 15 seconds, then flash frozen in liquid N₂ and during data collection kept at 100 K by a cryogenic N₂ gas stream. Crystallographic data were subsequently collected to 1.85 Å resolution at beam-line BL911-3 (Ursby, T. et al. (2004) AIP Conference Proceedings 705, 1241-1246) at MAX-lab, Lund, Sweden. Space group determination, integration and scaling of the data were made in the XDS software package. Cell parameters for the synchrotron data were determined to be 82.54, 65.32, 108.05 Å, 90°, 95.15° and 90°, for a, b, c, α, β and γ, respectively, and space group was determined to be C2. Rsym for intensities of the data set was calculated to be 6.7%. […]

Binder | Kd [1] | koff [1] | kon [1] | binding relative to wt hTLT-1 ECD-HPC4 (hTLT-1 ECD-HPC4 R110A) | binding relative to wt hTLT-1 ECD-HPC4 (hTLT-1 ECD-HPC4 F54A) | binding relative to wt hTLT-1 ECD-HPC4 (hTLT-1 ECD-HPC4 M91A) | binding relative to wt hTLT-1 ECD-HPC4 (hTLT-1 ECD-HPC4 R41A) | binding relative to wt hTLT-1 ECD-HPC4 (hTLT-1 ECD-HPC4 L42A) | binding relative to wt hTLT-1 ECD-HPC4 (hTLT-1 ECD-HPC4 Q43A) | binding relative to wt hTLT-1 ECD-HPC4 (hTLT-1 ECD-HPC4 H116A) | binding relative to wt hTLT-1 ECD-HPC4 (hTLT-1 ECD-HPC4 K46A) | binding result [2]
B1 | 4.12 nM | 0.00134 s⁻¹ | 326000 M⁻¹ s⁻¹ | < 0.2 fraction of wt binding | < 0.6 fraction of wt binding | < 0.4 fraction of wt binding | < 0.2 fraction of wt binding | < 0.6 fraction of wt binding | < 0.4 fraction of wt binding | < 0.6 fraction of wt binding |  | 
B2 | 4.36 nM | 0.00125 s⁻¹ | 287000 M⁻¹ s⁻¹ | < 0.2 fraction of wt binding |  | < 0.4 fraction of wt binding |  | < 0.2 fraction of wt binding | < 0.2 fraction of wt binding |  | < 0.2 fraction of wt binding | 
B3 |  |  |  |  |  |  |  |  |  |  |  | binds
